The source of these data is patent US20210024601A1.

The target of this experiment is CD122/CD132 receptor on cells of human PBMCs (human) (UniProt P14784). The experiment is described as follows: cell-based or functional assay.
CD122/CD132 receptor on cells of human PBMCs (human), sequence (P14784 27-551, chain 1 of 2): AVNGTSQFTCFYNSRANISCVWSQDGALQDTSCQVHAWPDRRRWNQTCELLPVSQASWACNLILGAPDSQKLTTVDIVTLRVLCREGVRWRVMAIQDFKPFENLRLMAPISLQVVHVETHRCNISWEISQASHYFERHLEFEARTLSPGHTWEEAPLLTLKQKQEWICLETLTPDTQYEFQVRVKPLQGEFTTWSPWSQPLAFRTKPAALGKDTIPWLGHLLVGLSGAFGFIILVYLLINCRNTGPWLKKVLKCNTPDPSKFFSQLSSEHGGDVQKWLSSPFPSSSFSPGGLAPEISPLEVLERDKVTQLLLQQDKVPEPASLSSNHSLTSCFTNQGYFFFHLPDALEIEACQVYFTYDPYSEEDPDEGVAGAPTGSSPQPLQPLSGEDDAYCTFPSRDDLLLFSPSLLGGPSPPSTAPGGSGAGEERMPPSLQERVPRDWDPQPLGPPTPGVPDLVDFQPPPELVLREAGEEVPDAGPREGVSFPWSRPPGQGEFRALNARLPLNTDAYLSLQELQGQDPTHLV
CD122/CD132 receptor on cells of human PBMCs (human), sequence (P31785 23-369, chain 2 of 2, further chain): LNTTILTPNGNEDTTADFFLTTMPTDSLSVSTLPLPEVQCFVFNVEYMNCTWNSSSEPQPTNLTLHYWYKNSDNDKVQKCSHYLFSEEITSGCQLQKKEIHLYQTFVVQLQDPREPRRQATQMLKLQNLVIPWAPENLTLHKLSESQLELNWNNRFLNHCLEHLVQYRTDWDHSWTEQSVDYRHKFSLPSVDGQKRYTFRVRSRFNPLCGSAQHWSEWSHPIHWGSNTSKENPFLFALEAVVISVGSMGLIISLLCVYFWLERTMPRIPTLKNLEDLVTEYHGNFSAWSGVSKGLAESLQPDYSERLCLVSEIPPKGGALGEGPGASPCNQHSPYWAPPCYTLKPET

Take “C-term N88D: irrelevant antibody with IL-2 N88D fused to its C-terminus (IgG-(IL-2N88D)2 of Peterson et al.)”: the pSTAT5 EC50, Treg (human PBMCs) was determined as 0.37 nM and the pSTAT5 Max. Signal, Treg (normalised to V69A/Q74P) is 0.5.
